Assay results from patent publication US20160340421A1 (Regeneron, published 2016).

What was measured:
[1] = target: T1, Human GDF8 homodimer (mature human Growth and Differentiation Factor-8) (human, UniProt O14793 267-375); assay: SPR, antibody captured, 25 nM antigen
T1 construct: also called hGDF8; myostatin
T1 sequence: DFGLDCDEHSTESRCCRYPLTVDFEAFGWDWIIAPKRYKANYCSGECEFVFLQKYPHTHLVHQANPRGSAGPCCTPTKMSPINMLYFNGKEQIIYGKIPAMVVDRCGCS
Method: (§1) Equilibrium dissociation constants (KD values) for antigen binding to selected antibodies were determined by surface kinetics using a real-time biosensor surface plasmon resonance assay (BIACORE™ 2000). Each selected antibody was captured on either a goat anti-mouse IgG polyclonal antibody surface or a goat anti-hFc polyclonal antibody (Jackson Immuno Research Lab) surface created through direct chemical coupling to a BIACORE™ chip to form a captured antibody surface. Human GDF8 homodimer, hGDF11 homodimer, or hGDF5 homodimer at 25 nM was injected over the captured antibody surfaces, and antigen-antibody binding and dissociation were monitored in real time at room temperature. Kinetic analysis was performed to calculate KD, dissociation rate constants (kd), association rate constants (ka) and half-life of antigen/antibody complex dissociation (Table 2).

[2] = target: T2, hGDF11 homodimer (human, UniProt O95390 299-407); assay: SPR, antibody captured, 25 nM antigen
T2 sequence (looked up): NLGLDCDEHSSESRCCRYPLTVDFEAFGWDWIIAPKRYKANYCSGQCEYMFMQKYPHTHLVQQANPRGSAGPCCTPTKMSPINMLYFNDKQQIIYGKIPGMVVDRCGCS
Method: as §1

[3] = target: T1, Human GDF8 homodimer (mature human …); assay: cell-based or functional assay
[4] = target: T2, hGDF11 homodimer; assay: cell-based or functional assay

B1: 22-G10 (antibody, V domains shown)
VH: QVHLKESGPTLVKPTQTLTLTCTFSGFSLSTSGVGVGWIRQPPGKALEWLALIYWNDDKRYSPSLKSRLTITKDTSKNQVVLTMTNMDPVDTATYYCTHTSRYNWHYGFLDYWGQGTTVTVSS
VL: AIQMTQSPSSLSASVGDRVTITCRASQGISNYLAWFQQKPGKAPKSLIYAASSLQSGVPSKFSGSGSGTDFTLTISSLQPEDFATYYCQQYNSYPLTFGGGTKVEIKR
In the case of B1, the Kd [1] is reported as 0.25 nM, the T1/2 [1] is reported as 71 min and the Kd [2] is reported as 0.73 nM. For the same binder, the T1/2 [2] was 50 min, the “IC50, GDF8-inducible luciferase, A204/Smad2 cells, 0.8 nM GDF8” value (shortened to “IC50 … A204/Smad2 cells, 0.8 nM GDF8”) [3] was 10.5 nM and the “IC50, GDF11-inducible luciferase, A204/Smad2 cells, 0.8 nM GDF11” value (“IC50 … A204/Smad2 cells, 0.8 nM GDF11” for short) [4] was > 25 nM.

B2: 19F2 (antibody, V domains shown)
VH: QVQLVESGGGVVQPGRSLRLSCEASGFTFSSSGMHWVRQAPGKGLQWVAVISYDGNNKFYEDSVKGRLTISRDNSNNTLWLQMNSLRVEDTAVYYCAKSGGRVGAAFAYWGQGTLVTVSS
VL: DIVNTQSPLSLPVTPGEPASISCRSSQSLLYGNGYNYLDWYLQKPGHSPQLLIYLGSNRGSGVPDRFSGSGSGTDFTLKISRVEAEDVGIYYCMQTLQTPFTFGPGTKMYIK
For B2, the Kd [1] was 0.5 nM, the T1/2 [1] was 38 min and the “IC50 … A204/Smad2 cells, 0.8 nM GDF8” value [3] was > 20 nM. For the same binder, the “IC50 … A204/Smad2 cells, 0.8 nM GDF11” value [4] was > 25 nM.

B3: 20B12 (antibody, V domains shown)
VH: EVQLLESGGGLVQPGGSLRLSCAGSGITFSSYAMSWVRQAPGKGLEWVSAISGNGGTTNYADSVKGRFTISRDNSKNTLYLQMNSLRAEDTAVYYCAKERILTSSWTRYGIMDVWGQGTTVTVSS
VL: EIVMTQSPATLSMSPGERATLSCRASQSVSSNLAWYQQKPGQAPRLLIYGASTRATGIPARFSGSGSGTEFTLTISSLQSEDFAVYYCQQYNNWPLTFGGGTKLEIK
With B3 the Kd [1] was 0.86 nM, the T1/2 [1] was 39 min and the Kd [2] was 2.08 nM. The T1/2 [2] was 2 min, the “IC50 … A204/Smad2 cells, 0.8 nM GDF8” value [3] was > 20 nM and the “IC50 … A204/Smad2 cells, 0.8 nM GDF11” value [4] was > 25 nM.

B4: 4E3-7 (antibody, V domains shown)
VH: EVQLLESGGGLVQPGGSLRLSCVASRFTFSSNAMSWVRQAPGTGLEWVSAITGSGSRTYYADSVKGRFTISRDNSKNTVYLQMNSLRGEDTAVYYCAKDQGGTWNYGDFDYWGQGTLVTVSS
VL: EIVMTQSPATLSVSPGERATLSCRASQSVSSNLAWYQQKPGQAPRLLIYGASTRATGLPARFSGSGSGTDFTLTISSLQSEDFAVYYCQQYNNWPLTFGGGTKVEIK
Binder B4 has a Kd [1] of 1.89 nM, a T1/2 [1] of 27 min and a Kd [2] of 1.33 nM. For the same binder, the T1/2 [2] was 29 min, the “IC50 … A204/Smad2 cells, 0.8 nM GDF8” value [3] was 10.4 nM and the “IC50 … A204/Smad2 cells, 0.8 nM GDF11” value [4] was > 25 nM.

B5: 1H4-5 (antibody, V domains shown)
VH: QVQLVESGGDVVQPGRSLRLSCTASGFTFSSYGMHWVRQAPGRGLEWVAVISFDGKNKYYADSVKGRFTVSRDNSKNTLFLQMNSLRAEDTALYYCAKRIAATGYYYFYGLDVWGQGTTVTVSS
VL: EIMMTQSPATLSVSPGERGTLSCRASQSVSSNLAWYQQKPGQAPRLLIYGASTRASGIPARFSGSGSGTEFTLTVSSLQSEDFAVYYCQQYNNWPLTFGGGTKVEIK
B5 gave a Kd [1] of 0.95 nM, a T1/2 [1] of 54 min and a Kd [2] of 1.48 nM. It also gave a T1/2 [2] of 24 min.

B6: 4B9 (antibody, V domains shown)
VH: EVQLLESGGGLVQPGGSLRLSCAASGFTSITYAMSWVRQAPGKGLEWVSAISVSGTNTYYADSVKGRFTISRDKSKNMLYLQMNSLRAEDTAVYYCAKDLLHNWKYGTFDIWGQGTMVTVSS
VL: EIVMTQSPATLSVSPGERATLSCRASQSVDSNLVWYQQKPGQVPRLLIYGASTRATGIPARFSGSGSGTEFTLTISSLQSEDFAVYYCQQYNKWPLTFGGGTKVEIK
In the case of B6, the Kd [1] is reported as 0.55 nM, the T1/2 [1] is reported as 55 min and the Kd [2] is reported as 1.09 nM. The T1/2 [2] was 34 min, the “IC50 … A204/Smad2 cells, 0.8 nM GDF8” value [3] was 0.47 nM and the “IC50 … A204/Smad2 cells, 0.8 nM GDF11” value [4] was > 25 nM.

B7: 8D12-1 (antibody, V domains shown)
VH: QVQLVESGGGVVQPGRSLRLSCAASGFTFSRYGIHWVRQAPGKGLEWVAVISYDGSDEYYVDSVKGRFSISRDNSKNTLYLQMNSLRPADSAVYYCVKGDLELGFDYWGQGTLVTVSS
VL: DIVMTQAAPSIPVIPGESVSMSCRSSKSLLYSNGHTYVYWFVQRPGQSPQLLIYRMSNLASGVPDRFSGSGSGTAFTLRISRVEAEDVGVYYCMQNLEFPLTFGAGTKLELK
notes: probably the same antibody as 8D12
In the case of B7, the Kd [1] is reported as 0.66 nM, the T1/2 [1] is reported as 95 min and the Kd [2] is reported as 1.87 nM. The T1/2 [2] was 23 min, the “IC50 … A204/Smad2 cells, 0.8 nM GDF8” value [3] was 2.4 nM and the “IC50 … A204/Smad2 cells, 0.8 nM GDF11” value [4] was > 25 nM.
